Legend:
[1] = molecular target: T1, murine major histocompatibility complex class II molecule I-A^d (murine, UniProt P04228 24-218; P01921 28-226, limits assumed); assay: competition with reference peptides on transfected fibroblasts, IL-2 secretion of T hybridoma 26.2
T1 construct: whole, on cells;extracellular; Expressed on transfected fibroblasts
T1 sequence (MHC II alpha, looked up): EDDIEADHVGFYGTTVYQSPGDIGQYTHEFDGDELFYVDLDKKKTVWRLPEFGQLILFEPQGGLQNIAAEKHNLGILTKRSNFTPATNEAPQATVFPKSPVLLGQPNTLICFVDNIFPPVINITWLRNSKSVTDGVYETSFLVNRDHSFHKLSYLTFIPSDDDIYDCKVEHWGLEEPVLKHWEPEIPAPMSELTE
T1 sequence (MHC II beta, looked up): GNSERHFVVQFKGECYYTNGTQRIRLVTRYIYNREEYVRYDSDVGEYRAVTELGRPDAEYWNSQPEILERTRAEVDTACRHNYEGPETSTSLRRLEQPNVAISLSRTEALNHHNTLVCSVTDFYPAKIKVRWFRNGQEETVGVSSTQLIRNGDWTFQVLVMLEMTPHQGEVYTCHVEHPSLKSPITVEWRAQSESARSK

[2] = molecular target: T2, murine major histocompatibility complex class II molecule I-A^k (murine, UniProt P01910 24-218; P06343 28-224, limits assumed); assay: competition with reference peptides on transfected fibroblasts, IL-2 secretion of T hybridoma E7E9
T2 construct: whole, on cells;extracellular; Expressed on transfected fibroblasts

[3] = molecular target: T3, murine major histocompatibility complex class II molecule I-E^d (murine, UniProt P01904 26-216; P01915 32-225, limits assumed); assay: competition with reference peptides on transfected fibroblasts, IL-2 secretion of T hybridoma 26.1
T3 construct: whole, on cells;extracellular; Expressed on transfected fibroblasts
T3 sequence (MHC II alpha, looked up): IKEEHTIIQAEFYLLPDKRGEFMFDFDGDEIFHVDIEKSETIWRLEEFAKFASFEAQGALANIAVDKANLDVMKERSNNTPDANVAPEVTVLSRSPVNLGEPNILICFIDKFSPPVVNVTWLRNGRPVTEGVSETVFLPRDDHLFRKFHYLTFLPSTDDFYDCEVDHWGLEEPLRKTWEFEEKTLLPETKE
T3 sequence (MHC II beta, looked up): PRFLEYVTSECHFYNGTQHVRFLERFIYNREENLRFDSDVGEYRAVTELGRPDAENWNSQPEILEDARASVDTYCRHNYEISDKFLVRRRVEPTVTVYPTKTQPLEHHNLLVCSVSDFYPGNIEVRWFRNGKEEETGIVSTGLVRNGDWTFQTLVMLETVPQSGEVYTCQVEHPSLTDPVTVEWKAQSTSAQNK

binding result [1]: binds
binding result [2]: binds
binding result [3]: binds
B1: 131-151 peptide of the U1-70K protein (RIHMVYSKRSGKPRGYAFIEY) (peptide)
peptide: RIHMVYSKRSGKPRGYAFIEY
notes: Synthetic peptide; also called parent peptide; non-phosphorylated peptide

— patent US20140004136A1 (CENTRE NATIONAL DE LA RECHERCHE SCIENTIFIQUE, published 2014)
